Assays:
[1] = target: full-length WT JR-FL (gp160) Env (JR-FL WT) (HIV-1 isolate JR-FL (subtype B)) (UniProt P20871); assay: cell-based or functional assay
[2] = target: JR-FL gp41 NT 1-5 mutant Env (full-length gp160) (HIV-1 isolate JR-FL (subtype B)) (UniProt P20871); assay: cell-based or functional assay
[3] = target: wild-type JR-FL SOS gp140 (trimer) (HIV-1 isolate JR-FL (subtype B)) (UniProt P20871); assay: SPR (BIAcore X): agent captured via Fc on protein G chip, 5 nM purified gp140 trimer injected
[4] = target: JR-FL gp41 NT 1-5 SOS gp140 mutant (trimer) (HIV-1 isolate JR-FL (subtype B)) (UniProt P20871); assay: as above
[5] = target: wild-type JR-FL SOS gp140 (trimer) (HIV-1 isolate JR-FL (subtype B)) (UniProt P20871); assay: SPR (BIAcore X): agent captured via Fc on protein G chip, 5 nM purified gp140 trimer injected, no CD4
[6] = target: JR-FL gp41 NT 1-5 SOS gp140 mutant (trimer) (HIV-1 isolate JR-FL (subtype B)) (UniProt P20871); assay: as above
[7] = target: wild-type JR-FL SOS gp140 (trimer) (HIV-1 isolate JR-FL (subtype B)) (UniProt P20871); assay: SPR (BIAcore X): 17b captured via Fc on protein G chip, 5 nM gp140 trimer pre-incubated 1 h with 6-molar excess D1D2-CD4
[8] = target: JR-FL gp41 NT 1-5 SOS gp140 mutant (trimer) (HIV-1 isolate JR-FL (subtype B)) (UniProt P20871); assay: as above
[9] = target: wild-type JR-FL SOS gp140 (trimer) (HIV-1 isolate JR-FL (subtype B)) (UniProt P20871); assay: SPR, with against without D1D2-CD4
[10] = target: JR-FL gp41 NT 1-5 SOS gp140 mutant (trimer) (HIV-1 isolate JR-FL (subtype B)) (UniProt P20871); assay: SPR, with against without D1D2-CD4

| Substance | neutralization of Env-pseudotyped virus infectivity (U87.CD4.CCR5 cells), mean IC50 [1] | neutralization of Env-pseudotyped virus infectivity (U87.CD4.CCR5 cells), mean IC50 [2] | Mean RU at end of injection (t = 180 s) [3] [RU] | Mean RU at end of injection (t = 180 s) [4] [RU] | further results |
| --- | --- | --- | --- | --- | --- |
| MAb A32 (antibody) | > 50 µg/mL | > 50 µg/mL | – | – | – |
| MAb b12 (antibody) | 0.15 µg/mL | 0.17 µg/mL | 223 | 195 | – |
| MAb 15e (antibody) | > 50 µg/mL | > 50 µg/mL | – | – | – |
| MAb 4E10 (antibody) | 13.4 µg/mL | 14.1 µg/mL | 83 | 94 | – |
| MAb 2F5 (antibody) | 6.2 µg/mL | 5.9 µg/mL | 191 | 216 | – |
| MAb b6 (antibody) | > 50 µg/mL | > 50 µg/mL | 391 | 233 | – |
| MAb F425-B4e8 (antibody) | 2.94 µg/mL | 2.64 µg/mL | – | – | – |
| T-20 (Enfuvirtide) (peptide) | 24.2 nM | 11.5 nM | – | – | IC50 of neutralization, fold against the mutant [1]: 2 fold |
| CD4-IgG2 (PRO 542) (from UniProt P01730 26-204) (Fc fusion) | 0.82 µg/mL | 0.74 µg/mL | 212 | 224 | – |
| MAb 17b (antibody) | > 50 µg/mL | > 50 µg/mL | – | – | Mean RU at end of injection (t = 180 s) [5]: 39 RU; Mean RU at end of injection (t = 180 s) [6]: 14 RU; Mean RU at end of injection (t = 180 s) [7]: 237 RU; Mean RU at end of injection (t = 180 s) [8]: 399 RU; neutralization of Env-pseudotyped virus infectivity in the presence of sCD4 (17b + sCD4), mean IC50 [1]: 25.9 µg/mL; neutralization in the presence of sCD4, fold against the WT virus [2]: 2 fold; neutralization of Env-pseudotyped virus infectivity in the presence of sCD4 (17b + sCD4), mean IC50 [2]: 15.2 µg/mL; fold induction of 17b binding by D1D2-CD4 [9]: 5 fold; fold induction of 17b binding by D1D2-CD4 [10]: 25 fold |
| monoclonal antibody (MAb) PA-1 | > 50 µg/mL | > 50 µg/mL | 242 | 123 | – |
